Assay results: paper PMC4859805, “Molecular mechanism of activation-triggered subunit exchange in Ca^2+/calmodulin-dependent protein kinase II” (eLife, 2016)
Changes are numbered by the printed parent chain. Numbers in names are those of the source. Where “and” joins values, the source holds several entries; their conditions need not be identical. Equal values may be shown once. Each block holds one molecule with its values, some of them ahead of it. Square brackets hold non-standard residues; d marks the D form. Ends that are not written are not given here. pT = C[C@@H](OP(=O)(O)O)[C@H](N)C(=O)O

T1: human CaMKII-α hub (Homo sapiens, UniProt Q9UQM7)
T1 construct: human CaMKII-α hub consisted of residues 345–475 (UNIPROT id: Q9UQM7); 6-histidine tag with PreScission protease site (N, cleaved yes); made in house; host or cells: E. coli BL21
T1 sequence (Q9UQM7 345-475): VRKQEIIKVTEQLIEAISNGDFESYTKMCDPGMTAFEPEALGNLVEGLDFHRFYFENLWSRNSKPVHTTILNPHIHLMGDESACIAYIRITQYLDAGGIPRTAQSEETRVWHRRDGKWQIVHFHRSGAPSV

B1: human CaMKII-α hub, crystallization construct with uncleaved expression tag (domain or fragment)
chain: GSSHHHHHHSSGLEVLFQGPHMVRKQEIIKVTEQLIEAISNGDFESYTKMCDPGMTAFEPEALGNLVEGLDFHRFYFENLWSRNSKPVHTTILNPHIHLMGDESACIAYIRITQYLDAGGIPRTAQSEETRVWHRRDGKWQIVHFHRSGAPSV
notes: uncleaved N-terminal expression tag: hexahistidine followed by a PreScission protease cleavage site; written as a part because it docks on the hub; Ca2+/calmodulin-dependent protein kinase II alpha, human, hub domain, residues 345-475; The 22-residue tag was left uncleaved for crystallization; also called dodecameric human CaMKII-α hub; source: E. coli BL21, purified (Ni-NTA, Q-FF, Superose 6, …)
B2: Peptide D, unlabeled (human CaMKII-α 290-309 plus C-terminal cysteine, phosphorylated on Thr 306) (peptide)
peptide: LKKFNARRKLKGAILT[pT]MLAC
notes: human CaMKII-α, residues 290-309; added C-terminal cysteine; also called peptide phosphorylated on Thr 306; source: synthetic peptide, bought: Elim Biopharm, HPLC purified
B3: human CaMKII-α hub domain (domain or fragment, UniProt Q9UQM7 345-475, looked up)
chain: T1 sequence (Q9UQM7 345-475)
notes: Ca2+/calmodulin-dependent protein kinase II alpha, human, hub domain; residues 345-475 are stated for the crystallization construct; The limits are stated only for the crystallization construct; also called the hub; isolated hub; source: E. coli BL21, purified (Ni-NTA, Q-FF, Superose 6); not shown: His6, N-terminal, cleaved; copies: 12 or 14
B4: human CaMKII-α hub domain F397A (domain or fragment, UniProt Q9UQM7 345-475, looked up)
chain: T1 sequence (Q9UQM7 345-475) with F53A
notes: Ca2+/calmodulin-dependent protein kinase II alpha, human, hub domain; residues 345-475 are stated for the crystallization construct of the wild type; residue number according to PDB 1HKX; also called F397A mutant hub; mutant hub; source: E. coli BL21, purified; not shown: His6, N-terminal, cleaved
B5: Peptide C, unlabeled (human CaMKII-α 290-309 plus C-terminal cysteine, phosphorylated on Thr 305) (peptide)
peptide: LKKFNARRKLKGAIL[pT]TMLAC
notes: human CaMKII-α, residues 290-309; added C-terminal cysteine; also called peptide phosphorylated on Thr 305; source: synthetic peptide, bought: Elim Biopharm, HPLC purified
B6: Peptide B (human CaMKII-α 290-309, unphosphorylated, unlabeled) (peptide)
peptide: LKKFNARRKLKGAILTTMLA
notes: also called the unphosphorylated peptide; wild type peptide; source: synthetic peptide, gift of Leta Nutt (St. Jude Children's Research Hospital), HPLC purified

How the values were obtained:
human CaMKII-α hub [1] = target: T1, human CaMKII-α hub; assay: Fluorescence polarization competition assay with unlabeled peptides; assay type: binding
Description: For the competition experiments, 2 nM of various labeled peptides were bound to 30 μM of the hub, resulting in high fluorescence polarization. Upon titration with the corresponding unlabeled versions of the peptides, the labeled peptides were competed off, and the fluorescence polarization decreased to the baseline value (Figure 3C–E). The value of the inhibition constant, IC50, is ~100 μM for the unlabeled peptides, whether phosphorylated or not. […]
(§1) The fluorescence polarization binding experiments were initiated by adding 15 μL of 2 nM BODIPY labeled peptides (buffer: 25 mM Tris at pH 8.0) to 15 μL of different concentrations of the human CaMKII-α hub domain (ranging from 0–1000 μM in 25 mM Tris at pH 8.0, 150 mM KCl, 10% glycerol and 0.02% Tween). […] The fluorescence polarization was read from 20 μL of these reaction mixtures in opaque black 96-well plates using a Synergy H4 hybrid microplate reader with a 485/20 nm excitation filter, and a 528/20 nm emission filter. Error bars are calculated from the standard error of mean between replicates of experiments. […]
where, A is the observed fluorescence polarization (FP) value, Af is the FP value for free labeled ligand, A0 is the FP value in the absence of unlabeled ligand, KD is the dissociation constant, [P]tot is the total protein concentration, and [L]tot is the total concentration of the unlabeled ligand. […]

[2] = target: N. vectensis CaMKII-A hub domain (Nematostella vectensis); assay: crystal structure; N. vectensis CaMKII-A hub; 0.2 M potassium thiocyanate, 20% w/v PEG 3350, pH 7.0
[3] = target: N. vectensis CaMKII-B hub domain (Nematostella vectensis); assay: crystal structure; N. vectensis CaMKII-B hub; 2.5 M sodium chloride, 0.1 M acetate pH 4.2, 0.25 M lithium sulphate
human CaMKII-α hub [4] = target: T1, human CaMKII-α hub; assay: Fluorescence polarization, direct titration of hub to BODIPY-labeled peptide; settings: 2 nM Bodipy-FL-labeled peptide, hub 0-1000 μM, 25 mM Tris pH 8.0; non-saturable binding at high hub concentrations, value not relied on; read-out: KD derived from direct titration of the hub to the labeled peptide
From the text: To analyze the mechanism of subunit exchange, we focused initially on potential interactions between the CaM-binding element and the hub. We had shown previously that mutation of the CaM-binding element blocks subunit exchange, and that phosphorylation of Thr 305 and Thr 306 in the CaM-binding element potentiates exchange ([Stratton et al., 2014]). We prepared both phosphorylated and unphosphorylated forms of peptides spanning the CaM-binding element of CaMKII-α (see Materials and methods). The peptides were labeled with a fluorophore (Bodipy-FL maleimide) at the C-terminal end, and binding was monitored by changes in fluorescence polarization (Figure 3A). To a fixed volume of labeled peptide (2 nM), increasing concentrations of the hub was added, and the change in fluorescence polarization was monitored (Figure 3B). […]
as §1, with “filter.” for “filter. Error bars are calculated from the standard error of mean between replicates of experiments.”

[5] = target: S. rosetta CaMKII holoenzyme, full length, wild type (Salpingoeca rosetta); assay: SEC; analytical gel filtration, Superose 6 10/300, 25 mM Tris pH 8.0, 150 mM KCl, 10% glycerol, 1 mM TCEP or 2 mM DTT; injection at 700 nM subunits; tryptophan fluorescence
[6] = target: S. rosetta CaMKII holoenzyme, full length, wild type (Salpingoeca rosetta); assay: native MS; full-length S. rosetta CaMKII at 48 μM; 1 M ammonium acetate pH 7.2
[7] = target: S. rosetta CaMKII holoenzyme, full length, wild type (Salpingoeca rosetta); assay: native MS; full-length S. rosetta CaMKII at 3 μM; 1 M ammonium acetate pH 7.2
[8] = target: S. rosetta CaMKII holoenzyme, full length, wild type (Salpingoeca rosetta); assay: native MS; full-length S. rosetta CaMKII at 12 μM; 1 M ammonium acetate pH 7.2
[9] = target: S. rosetta CaMKII hub domain (Salpingoeca rosetta); assay: SEC-MALS; S. rosetta hub at ∼3.2 mg/ml (~200 μM) on Superdex 200 10/300; 25 mM Tris pH 8.0, 150 mM KCl, 1 mM TCEP, 10% glycerol; 25°C
[10] = target: hub-△kinase (hub, linker and autoinhibitory segment of human CaMKII-α, without the kinase domain) (human); assay: SEC; analytical gel filtration, Superose 6 10/300, 25 mM Tris pH 8.0, 150 mM KCl, 10% glycerol, 1 mM TCEP or 2 mM DTT; injection at 700 nM subunits; tryptophan fluorescence
[11] = target: the molecule itself; assay: crystal structure; human CaMKII-α hub with uncleaved tag; 35% (v/v) MPD, 0.1 M HEPES pH 7.3
[12] = target: B3; assay: fluorescence polarisation; competition: 2 nM BODIPY labelled peptide bound to 30 μM hub, unlabeled peptide 0-500 μM added; KD from a non-linear fit assuming one peptide site per subunit and equal KD of labelled and unlabeled peptide; settings: both partners purified
[13] = target: the molecule itself; assay: native MS; human hub; nanoelectrospray Q-TOF, 1 M ammonium acetate pH 7.2; CID MS/MS at 30 V collision energy
[14] = target: the molecule itself; assay: SEC; analytical gel filtration, Superose 6 10/300; elevated injection concentration of 3–5 μM; reinjection of the dodecamer/tetradecamer peak of the holoenzyme; pre-incubation with Mg2+-ATP for the holoenzyme
[15] = target: the molecule itself; assay: native MS; F397A hub: 200 μM in 1 M ammonium acetate; 2 μM in 25 mM Tris, 1 mM TCEP, pH 8; 250 mM ammonium acetate, 25 mM Tris, 1 mM TCEP, pH 8; oligomer identity confirmed by CID

Kd (human CaMKII-α hub [1]; 2 nM labeled peptide bound to 30 μM hub, competed with unlabeled peptide 0-500 μM, 25 mM Tris pH 8.0, non-linear least squares fit, one peptide-binding site per subunit, labeled peptide A used for peptide B, read-out: KD from competition experiments): 52 µM
Molecule: CC[C@H](C)[C@H](NC(=O)[C@H](C)NC(=O)CNC(=O)[C@H](CCCCN)NC(=O)[C@H](CC(C)C)NC(=O)[C@H](CCCCN)NC(=O)[C@H](CCCNC(=N)N)NC(=O)[C@H](CCCNC(=N)N)NC(=O)[C@H](C)NC(=O)[C@H](CC(N)=O)NC(=O)[C@H](Cc1ccccc1)NC(=O)[C@H](CCCCN)NC(=O)[C@H](CCCCN)NC(=O)[C@@H](N)CC(C)C)C(=O)N[C@@H](CC(C)C)C(=O)N[C@H](C(=O)N[C@H](C(=O)N[C@@H](CCSC)C(=O)N[C@@H](CC(C)C)C(=O)N[C@@H](C)C(=O)N[C@@H](CS)C(=O)O)[C@@H](C)OP(=O)(O)O)[C@@H](C)O [peptide D]

Ability to compete the binding of the labeled peptide (human CaMKII-α hub [1]; hub bound to labeled peptide A, competition with unlabeled mutant peptides (Figure 3F)): fails to compete
Molecule: LKEFNAERKLEGAILTTMLA [Peptide G, triple mutant of the residues 290-309 peptide, three positively charged residues replaced by Glu]

stoichiometry N [2]: 14
Molecule: N. vectensis CaMKII-A hub domain (domain or fragment)

stoichiometry N [3]: 14
Molecule: N. vectensis CaMKII-B hub domain (domain or fragment)

Kd (human CaMKII-α hub [4]): ~100 µM
Molecule: RRKLKGAILTTMLATRC [peptide A]

stoichiometry N [5]: 2
stoichiometry N [6]: 4 and 6 and 8
stoichiometry N [7]: 2 and 4
stoichiometry N [8]: 4 and 6
Molecule: S. rosetta CaMKII holoenzyme, full length, wild type

stoichiometry N [9]: 4
Molecule: S. rosetta CaMKII hub domain (domain or fragment)

percent of the sample in the dimer peak [10]: 35%
percent of the sample in the dodecamer/tetradecamer peak [10]: 65%
stoichiometry N [10]: 2
Molecule: hub-△kinase (hub, linker and autoinhibitory segment of human CaMKII-α, without the kinase domain) (domain or fragment)

Molecule: B1
stoichiometry N [11]: 12

Molecule: B2
IC50 [12]: ~100 µM
Kd [12]: ~50 µM

Molecule: B3
stoichiometry N [13]: 12 and 14

Molecule: B4
stoichiometry N [14]: 2
stoichiometry N [15]: 14

Molecule: B5
IC50 [12]: ~100 µM
Kd [12]: ~60 µM

Molecule: B6
IC50 [12]: ~100 µM
Kd [12]: ~90 µM
